Data from the supplement of paper PMC12764529.
± gives the half width of the 95% confidence interval.

experiment: folding stability dG unfold from trypsin proteolysis; higher = more stable
In short: (§1)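 K50 was inferred by Bayesian fitting of sequencing counts obtained after protease digestion of designed mini-proteins. Unfolding free energy was derived by comparison with a sequence-predicted unfolded-state K50 and a shared folded-state K50, for each protease or both combined. The mini-proteins were under 80 residues, had no cysteine, were carried in a PA-tagged cDNA display construct, and were kept only if AlphaFold2 dimer inter-PAE exceeded 15.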

| Sequence | folding stability dG unfold |
| --- | --- |
| SPPITIEIEYERNPDNGMFPLKVKAWNPDGEPIGEREIPFKGSPEEMRERAMKEAKELADKNGWPIEIEWSA [r9_31_TrROS] | -0.436 ± 0.17 kcal/mol |
| SMSLTIPEELIEAIKKALEELEPGEEVTITYNLPDGSVITVKVVGKGEVTITVYSSPDSQTQTYTFEIKESA [r9_132_JUSTAS] | 3.15 ± 0.061 kcal/mol |
| SGYVVRIYRPNEKGEPVKIVLPDEEAEELYKELVDEEMSVEEFAERLKKLFPDAKVEVRKAEDIPPEELLSA [r9_1085_TrMRF] | 2.13 ± 0.07 kcal/mol |
| SAGGKITITVEYNKETNTVRIKITTEDGKEKELEINLENLTEEELKKLAEEIAKKLNPEKIKKVEIYPSAGG [r13_267_TrROS_Hall] | 1.69 ± 0.11 kcal/mol |
| SAGGSAGGSMKPGEKVKVEIVSYDEKTKELTIKITYGPKKTKTITIKPKTKEEALEQLKKLLKSAGGSAGGS [r20_167_TrROS_Hall] | 1.93 ± 0.17 kcal/mol |
| GVVRPLGDPNGQLSIVATDPEGNLLVKALVPNDEAQVEAAKKELLAAMPGLDEKEVVFSIYDPLTGKTKILS [r1_55_JUSTAS] | 1.07 ± 0.1 kcal/mol |
| SAGGSAGGSAGMVLVFDKKTGELYLYDKNGKLVAKFKVEGAEEVVVLVFDPDTNELKLVPSAGGSAGGSAGG [r17_413_TrROS_Hall] | 2.49 ± 0.049 kcal/mol |
| SAGGSAGGSAGMRLVTFTVPGSAISVSTPGGATVVSVEKLPGDLVRVTVEIPEGAPPGLQSAGGSAGGSAGG [r17_48_JUSTAS] | 1.12 ± 0.013 kcal/mol |
| SAGGSAGGPKTKTVDFIVPALDENGNPLPDNAKFTFKLPDKTINIDFKRDKDSDYVLVKATITNSAGGSAGG [r6_657_TrMRF] | 0.197 ± 0.11 kcal/mol |
| SAGGSAGGSAGGPNLRIKLKPYPDGKWKIDEIEVPDNHVTIPMRFGNGGEERKTMPPEQISAGGSAGGSAGG [r7_829_TrROS] | 1.42 ± 0.065 kcal/mol |
| SAGGSAMKVIVTVKILDKGEVKTLTEEEAKKYLEEHPEEVKEVEVETTVESDATESFTDIDLNGLKSAGGSA [r15_99_JUSTAS] | -0.185 ± 0.21 kcal/mol |
| SAKKKVVVEIEIPKEDMSKEEVKEALREAAKELGLELPEEEIEKLVEEARKKGLSIEEVLRKLKEEGLLSAG [r14_364_TrROS_Hall] | 0.693 ± 0.056 kcal/mol |
| SMEEFAKSLPDVKIETKPLSPDEIEITVYIPSDPEKAKKVEEIVKKLAEEIEKKTGIKVKVTFKPVPPEESA [r9_1099_JUSTAS] | 3.24 ± 0.24 kcal/mol |
| SPKEPQKVRIRIRNPENGKPIWEFDIWFPPDGGVKVKIEHPNEKHEYPMPADEALDFLENHPFKIEEIEVSA [r9_470_TrROS] | 0.739 ± 0.18 kcal/mol |
| SAGSFKVTLELVLPNGEKLTVENPEDVLAAIKALPSNVTVRVSTPGESETISITGSDGSVFALKIERFKSAG [r5_506_TrMRF] | 1.68 ± 0.045 kcal/mol |
| SPEAVAEALRKLGFDLDIERIDVEPLPDGTYRVTVTRGDKPVFTVTVTAPPPPPPVFVVRDADGTERLVRSA [r9_442_TrMRF] | 0.704 ± 0.054 kcal/mol |
| SAGGSAGGSSVKAKLLSYSRDPTSDLVSVELLIEKSSETIPITLTVPPSEVQPGATITIEIRPSAGGSAGGS [r12_76_JUSTAS] | -0.616 ± 0.16 kcal/mol |
| SAGEPLVPLSEYELDVPGGQKVKIEIYALPDGTVVVRITDSEGNESEITIPRAELEKLSPEEIVARLSSAGG [r19_47_JUSTAS] | 3.71 ± 0.14 kcal/mol |
| SAGGSAGGMTITTTENPNSNLTTYDVTIGNTKVTVTVNPNNPGVIKTEGDNDVPVEVVINAVLSSAGGSAGG [r6_197_JUSTAS] | 1.69 ± 0.059 kcal/mol |
| SAGGSAGILEKTIKLAEELGLPVVEAKVVKKKNKVYVFFKSKKSKKYVIEIDGDKITIKPYSVVKKSAGGSA [r15_901_TrMRF] | 1.954 ± 0.014 kcal/mol |
| SAGRIHFMDSPSQARDQAEENNYPIVIGMDKGSGWMQIAIYKGGKPKPIRQIPPNNPEINRFIKKLGFTSAG [r5_458_TrROS] | 0.149 ± 0.093 kcal/mol |

experiment: folding stability dG unfold (combined trypsin and chymotrypsin); higher = more stable
In short: as §1

| Sequence | folding stability dG unfold |
| --- | --- |
| SAGGSAGGMMYVVKITNEDGETLTIEAESEEEALEAARALAEETGREITRIEVRRLSKEEEEEESAGGSAGG [r6_162_TrROS_Hall] | 2.64 ± 0.064 kcal/mol |
| SAGGSAGGSAGGVKEFDALAGGVPVKVKVYPDPDGNPRVEVIFPDGSKVTLSADEPLNLSAGGSAGGSAGGS [r10_989_TrMRF] | 1.87 ± 0.068 kcal/mol |
| SAGGSPMTITMWFPVDSVEQAKDLINPNFPDYDVKVDNIKPENGWVRVKYTWPNGKPQEREIPIKKSAGGSA [r2_201_TrROS] | 0.147 ± 0.39 kcal/mol |
| SAGPTVTVELEIRLPPELRGLSPEELAELLARELEEAGYTVEVVEVEEEDGYVTVRVRVTVPLPPPPPESAG [r5_80_TrROS_Hall] | 3.52 ± 0.13 kcal/mol |
| SAGGSTTITLPDGRTATVEPDPNGVERYTVPGHPGVYIEKDPSTNKLTVTTVDPSSGSPVTSVIEESAGGSA [r2_477_JUSTAS] | 0.0736 ± 0.15 kcal/mol |
| LKITLPDGAEITEITSVSVLPNGTIKITVKVRNPATGETTTVTLTITLKPAPPPEVTIVRDAETGELKLVKS [r1_411_TrROS_Hall] | 2.49 ± 0.23 kcal/mol |
| SAGGSAGGSAGPPKPIWFRVKEVEVNPDNGTLEIKFENGQTITIPPENIENLPPGDWIRISAGGSAGGSAGG [r11_124_TrROS] | 1.33 ± 0.058 kcal/mol |
| STMTLKELKERFPGFPPEMIEEIAERAENDPPGEEVEIYIRFPNGYPIYITVTKPDTVTIQFIPPGEPVYSA [r9_1024_TrROS] | 1.24 ± 0.26 kcal/mol |
| SAMDFKAEKVEILKVEKLKDGTVKITVKVEVGKYVLNAEIPYGKDGKIEKIEAEIDLENNFMTYKVTVGSAG [r14_189_TrMRF] | 1.97 ± 0.33 kcal/mol |
| SAGGSAGGSMSLKGVKITEVTNPGGKVTITYTGDGVPQTITIPPAERALIEKLRESGDISFSPSAGGSAGGS [r12_604_JUSTAS] | 0.743 ± 0.1 kcal/mol |
| SAGGSAGGSGWIKIEFWIPIPIPVMKFDPGDGNWEMEPVTIMIRVEIEIPIPPSPEDLEKNGLSAGGSAGGS [r20_172_TrROS] | 2.57 ± 0.27 kcal/mol |
| SAGGLVIPVTFMFQDWEEAEEFANEIARELANLYPGRPVKIDVEVEPIRNPNNGKRYYMVEATIEIDPSAGG [r13_545_TrROS] | 2.6 ± 0.15 kcal/mol |
| SAGGMLIVRITVDLTFPVIHPDNRPSLVSVPLPITLPFSTPEEARAFAEALSKLFDAPVSLEVLPPDGSAGG [r13_320_TrMRF] | 4.16 ± 0.12 kcal/mol |
| SALPALLEAAEAGESGTFIPIVADPEAAAVLRAVLERLGFTLVSEEPVPAGARPVFVGVYYFDPVSGRNRSA [r9_498_TrMRF] | 1.84 ± 0.091 kcal/mol |
| SAGGSAGGSAGSETYYIKIGDKLYTVTVEPDSITVKYPETSEEKTFSSSLPGISLEEILSSAGGSAGGSAGG [r11_648_JUSTAS] | 1.71 ± 0.065 kcal/mol |
| SAGGKKVIEIEITVKPGETITITVPPGARIEIVDLDTGEVREIEIEPGETITLTLPPGSTLLIRIYEPSAGG [r19_78_TrROS_Hall] | 4.01 ± 0.23 kcal/mol |
| SAGGSAGGSAGAPTGFIRVRVEFVTPDGQPAEADFTVPASLVDAVFRAARETGARVSLEGSAGGSAGGSAGG [r11_603_TrMRF] | 1.2 ± 0.068 kcal/mol |
| SKLKPGDIVKLENGEYYRIKKIEISYDKETKEFTIKAEIEPAPPVETETETKTNADGSTETVTKTKVELPSA [r9_914_TrROS_Hall] | 1.95 ± 0.042 kcal/mol |
| SAGGSAGGSAGGPPILLPKFDGSVKEVLTLPTEDRLLLVAYNPETGKLFVFEIKDPDEFSAGGSAGGSAGGS [r10_772_TrMRF] | 1.34 ± 0.14 kcal/mol |
| SETVTVTVTVTVTLYRRRPDGKWVPIAELTVTVTRTVEKEDEEEARRAVREEVEDELRKLAEELGVEIEPSA [r9_356_TrROS_Hall] | 5.6 ± 0.15 kcal/mol |
| SAGGSAEKPEIGAEIVTYKDKDKPLYIVAVPFFDENGNLVGVLVKEFDNPEEAKEFLEALGFGKIESAGGSA [r15_127_TrMRF] | 1.56 ± 0.12 kcal/mol |

| Sequence | folding stability dG unfold |
| --- | --- |
| SPPITIEIEYERNPDNGMFPLKVKAWNPDGEPIGEREIPFKGSPEEMRERAMKEAKELADKNGWPIEIEWSA [r9_31_TrROS] | 0.331 ± 0.19 kcal/mol |
| SMSLTIPEELIEAIKKALEELEPGEEVTITYNLPDGSVITVKVVGKGEVTITVYSSPDSQTQTYTFEIKESA [r9_132_JUSTAS] | 3.25 ± 0.069 kcal/mol |
| SGYVVRIYRPNEKGEPVKIVLPDEEAEELYKELVDEEMSVEEFAERLKKLFPDAKVEVRKAEDIPPEELLSA [r9_1085_TrMRF] | 2 ± 0.058 kcal/mol |
| SAGGKITITVEYNKETNTVRIKITTEDGKEKELEINLENLTEEELKKLAEEIAKKLNPEKIKKVEIYPSAGG [r13_267_TrROS_Hall] | 2.33 ± 0.13 kcal/mol |
| SAGGSAGGSMKPGEKVKVEIVSYDEKTKELTIKITYGPKKTKTITIKPKTKEEALEQLKKLLKSAGGSAGGS [r20_167_TrROS_Hall] | 2.6 ± 0.27 kcal/mol |
| GVVRPLGDPNGQLSIVATDPEGNLLVKALVPNDEAQVEAAKKELLAAMPGLDEKEVVFSIYDPLTGKTKILS [r1_55_JUSTAS] | 1.54 ± 0.12 kcal/mol |
| SAGGSAGGSAGMVLVFDKKTGELYLYDKNGKLVAKFKVEGAEEVVVLVFDPDTNELKLVPSAGGSAGGSAGG [r17_413_TrROS_Hall] | 3.4 ± 0.065 kcal/mol |
| SAGGSAGGSAGMRLVTFTVPGSAISVSTPGGATVVSVEKLPGDLVRVTVEIPEGAPPGLQSAGGSAGGSAGG [r17_48_JUSTAS] | 1.56 ± 0.046 kcal/mol |
| SAGGSAGGPKTKTVDFIVPALDENGNPLPDNAKFTFKLPDKTINIDFKRDKDSDYVLVKATITNSAGGSAGG [r6_657_TrMRF] | 0.625 ± 0.098 kcal/mol |
| SAGGSAGGSAGGPNLRIKLKPYPDGKWKIDEIEVPDNHVTIPMRFGNGGEERKTMPPEQISAGGSAGGSAGG [r7_829_TrROS] | 0.666 ± 0.29 kcal/mol |
| SAGGSAMKVIVTVKILDKGEVKTLTEEEAKKYLEEHPEEVKEVEVETTVESDATESFTDIDLNGLKSAGGSA [r15_99_JUSTAS] | 0.416 ± 0.23 kcal/mol |
| SAKKKVVVEIEIPKEDMSKEEVKEALREAAKELGLELPEEEIEKLVEEARKKGLSIEEVLRKLKEEGLLSAG [r14_364_TrROS_Hall] | 1.12 ± 0.12 kcal/mol |
| SMEEFAKSLPDVKIETKPLSPDEIEITVYIPSDPEKAKKVEEIVKKLAEEIEKKTGIKVKVTFKPVPPEESA [r9_1099_JUSTAS] | 3.59 ± 0.68 kcal/mol |
| SPKEPQKVRIRIRNPENGKPIWEFDIWFPPDGGVKVKIEHPNEKHEYPMPADEALDFLENHPFKIEEIEVSA [r9_470_TrROS] | 0.567 ± 0.33 kcal/mol |
| SAGSFKVTLELVLPNGEKLTVENPEDVLAAIKALPSNVTVRVSTPGESETISITGSDGSVFALKIERFKSAG [r5_506_TrMRF] | 1.85 ± 0.1 kcal/mol |
| SPEAVAEALRKLGFDLDIERIDVEPLPDGTYRVTVTRGDKPVFTVTVTAPPPPPPVFVVRDADGTERLVRSA [r9_442_TrMRF] | 1.98 ± 0.036 kcal/mol |
| SAGGSAGGSSVKAKLLSYSRDPTSDLVSVELLIEKSSETIPITLTVPPSEVQPGATITIEIRPSAGGSAGGS [r12_76_JUSTAS] | 0.289 ± 0.072 kcal/mol |
| SAGEPLVPLSEYELDVPGGQKVKIEIYALPDGTVVVRITDSEGNESEITIPRAELEKLSPEEIVARLSSAGG [r19_47_JUSTAS] | 3.67 ± 0.098 kcal/mol |
| SAGGSAGGMTITTTENPNSNLTTYDVTIGNTKVTVTVNPNNPGVIKTEGDNDVPVEVVINAVLSSAGGSAGG [r6_197_JUSTAS] | 1.21 ± 0.056 kcal/mol |
| SAGGSAGILEKTIKLAEELGLPVVEAKVVKKKNKVYVFFKSKKSKKYVIEIDGDKITIKPYSVVKKSAGGSA [r15_901_TrMRF] | 2.68 ± 0.059 kcal/mol |
| SAGRIHFMDSPSQARDQAEENNYPIVIGMDKGSGWMQIAIYKGGKPKPIRQIPPNNPEINRFIKKLGFTSAG [r5_458_TrROS] | 0.0603 ± 0.14 kcal/mol |
